T1: hALPI (Homo sapiens, UniProt P09923)
T1 sequence (P09923 with tags, fused parts or gaps): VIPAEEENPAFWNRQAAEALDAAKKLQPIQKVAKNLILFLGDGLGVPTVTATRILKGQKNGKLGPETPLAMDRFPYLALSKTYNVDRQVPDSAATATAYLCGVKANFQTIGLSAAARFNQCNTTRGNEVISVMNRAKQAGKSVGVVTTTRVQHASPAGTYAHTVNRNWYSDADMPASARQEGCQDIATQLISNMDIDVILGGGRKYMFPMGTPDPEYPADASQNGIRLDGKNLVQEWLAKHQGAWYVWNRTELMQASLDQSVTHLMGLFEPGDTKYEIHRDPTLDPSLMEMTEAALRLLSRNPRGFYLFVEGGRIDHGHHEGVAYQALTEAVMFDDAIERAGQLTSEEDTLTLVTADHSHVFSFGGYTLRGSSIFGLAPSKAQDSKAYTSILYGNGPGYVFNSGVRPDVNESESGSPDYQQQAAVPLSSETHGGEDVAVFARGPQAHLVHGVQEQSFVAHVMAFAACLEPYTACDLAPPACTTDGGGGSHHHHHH


Target: T1, hALPI
Assay: BLI binding to ALPI His
Settings: VHH-hFc fusions, very low response values
Procedure: Binding kinetics were determined using the Biolayer Interferometry (BLI) Octet K2 system (Sartorius). Human ALPP, ALPPL2, ALPL (each fused with a cysteine stabilised leucine zipper) and ALPI, (SEQ ID NO: 265, SEQ ID NO: 266 and SEQ ID NO: 267 and SEQ ID NO: 264 respectively) were immobilised in sodium acetate pH5 buffer to AR2G sensors using amine coupling. All assays were conducted in PBS with a plate temperature of 25° C. Ka (M^−1s^−1), Kd (s^−1) and KD (nM) values were determined using Octet Data Analysis High Throughput software (ForteBio) for Biolayer Interferometry.
Binding kinetics were determined using the Biolayer Interferometry (BLI) Octet K2 or R4 system (Sartorius). Human ALPP, ALPPL2 and ALPL all fused with a disulphide stabilised leucine zipper (SEQ ID NO: 265, SEQ ID NO: 266, and SEQ ID NO: 267) and ALPI His (SEQ ID NO: 264) were used in BLI experiments. […] Ka (M^−1s^−1), Kd (s^−1) and KD (nM) values were determined using Octet Data Analysis High Throughput software (Sartorius) for Biolayer Interferometry.
Binding kinetics were determined using the Biolayer Interferometry (BLI) Octet K2 or R4 system (Sartorius). […] Ka (M^−1s^−1), Kd (s^−1) and KD (nM) values were determined using Octet Data Analysis High Throughput software (Sartorius) for Biolayer Interferometry.

Molecule | Kd [nM]
F08: ALPP/ALPPL2 targeting VHH domain, SEQ ID NO: 35 (protein) VHH: QVQLVESGGGSVQAGGSLRLSCAASGPSLSNYAMGWFRQAPGKEREFVAGISWGGGRTSYTDSVKGRFTISRDNAKNTVYLQMNNLKPEDTGVYYCAGRYGRGRNVEYEYDYWGQGTQVTVSS | 10.8
B01: ALPP/ALPPL2 targeting VHH domain, SEQ ID NO: 20 (protein) VHH: QVQLVESGGGLVQAGGSLRLSCEVTRSPMPIDTMAWYRQAPGRQRELVAIISRSGSTNYADSVKGRFTISRNDTKSTMYKSTMYLKMNTLELEDTGVYYCNAVGLWNGAEYWGQGTQVTVSS | 148

From US20260216242A1, “ALPP-SPECIFIC VARIANT ANTIGEN BINDING MOLECULES” (ALMAC DISCOVERY LIMITED, priority 2022, published 2026)
